Test results taken from the supplement of paper PMC10567573.

B1: TCEB3B (parent)
chain: STTALGDKQRKANESKGTRESWDS
B2: PTPRD (parent)
chain: ITWFKDFLPVDTSNNNGRIKQLRS

Variants of: B1
Test: protein stability index of a GFP-peptide fusion (GPS, HEK-293T) (PSI 1-6); higher = more stable
Conditions: c terminus: a fixed tail appended
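Also: lentivirally expressed fusions sorted by FACS into six bins by GFP to DsRed ratio, PSI derived from sequencing read proportions per bin multiplied by bin number.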

Protein stability index: each site, then its substitutions
A12: T 3.59; P 4.17; K 3.13; Q 3.92; M 3.83; L 4.03; Y 3.4; D 4.36; E 4.49; N 4.2; G 4.21; R 3.56
K16: M 3.44; N 3.97; Y 3.6; R 4.04; V 4.53; F 3.8; T 4.24; H 4.14; Q 4.24; L 4.3; A 4.45; P 4.29; S 4.42
R10: I 3.6; Q 4.56; V 3.54; M 4.03; E 4.57; L 4.28; Y 4.26; C 3.53; A 4.13; H 4.24; S 4.26; W 3.46; D 4.76
S21: V 4.84; Q 5.22; C 4.57; W 4.34; N 5.19; R 4.82; P 5.24; M 5.23; E 4.99; F 4.18; Y 5.09; H 5.02
G6: Q 3.83; D 4.12; C 3.74; T 3.81; H 3.78; Y 3.68; M 3.93; N 4.38; K 3.3; P 4.34; L 4.08; A 3.65; F 3.12
A4: T 4.46; K 3.78; Q 3.9; P 3.88; M 3.54; N 4.18; W 3.62; D 4.14; E 4.14; I 3.65; C 3.86; G 3.75; F 3.56
N13: F 3.67; R 3.12; C 3.83; A 3.91; P 3.83; M 3.7; K 3.65; L 3.67; E 4.87; T 3.78
T18: N 4.09; L 3.14; E 4.17; D 4.05; F 3.46; G 3.81; Y 3.8; K 3.61; C 4.19; S 4; I 3.31; W 3; R 3.76
K11: Q 3.79; N 4.39; M 3.86; V 4.07; D 4.32; A 4.3; L 3.65; S 4.03; H 4.29; P 4.23; G 3.88; R 3.57; T 4.22; I 4.02
L5: M 3.88; G 4.11; A 4.37; W 3.64; H 4.25; Q 4.57; K 4.37; D 4.22; S 4.25; F 3.29; E 4.57; I 3.17; P 4.37
W22: T 5.24; S 4.29; V 5.12; C 5.1; M 5.53; I 5.53; Y 5.6; E 5.67; F 5.38; L 5.25; P 5.54; Q 5.47; H 5.45
R19: I 4.58; G 4.68; H 4.4; L 4.5; P 4.84; T 4.89; Y 3.37; V 5.14; N 4.58; E 5.27
S1: L 3.67; F 2.81; K 3.12; Q 3.67; E 3.85; Y 3.6; G 3.9; W 2.74; P 3.77; M 4.22
T2: K 4.11; S 4.09; V 3.67; Q 3.33; R 5.3; D 4.01; G 3.49; N 4.25; W 3.16; C 3.8; I 3.29
Q9: L 3.67; F 3.29; S 3.71; E 3.71; V 3.85; K 4.09; T 4.14; W 2.45; N 3.47; M 4.08; I 3.72; H 4.26; R 3.52
E14: Q 3.54; G 3.85; I 3.81; A 3.15; L 3.9; Y 2.95; W 2.73; K 3.33; S 3.82; C 2.77; V 3.34; P 3.19; F 3
T3: C 3.22; W 3.57; E 4.33; R 3.89; Q 4.35; M 4.1; Y 3.77; I 3.72; F 3.32; A 3.89; G 4.22; K 3.56; N 3.77; H 4.21
K8: N 4.15; M 4.12; S 4.31; A 3.83; V 4.17; T 3.46; C 4.12; I 3.98; E 4.1; P 3.96; F 3.88; L 4.8
G17: H 3.93; R 3.97; K 3.65; F 3.97; T 3.98; Q 3.88; N 3.74; S 3.71; L 3.21; C 3.8; Y 3.93; E 4.78
E20: F 4.6; P 4.89; G 5; A 4.82; S 4.88; M 4.54; D 4.76; I 4; Y 4.92; K 5.19; R 4.2; C 3.66; H 4.89; T 4.86; L 4.6; Q 4.38
S15: H 3.93; P 4.34; E 4.97; A 4.69; G 4.2; C 3.58; K 4; T 3.38; M 3.98
D23: H 3.81; P 4.76; W 3.59; R 2.13; Y 4.07; I 2.69; M 2.32; N 4.15; L 1.98; K 2.47; T 1.05; G 2.83
D7: L 2.88; W 3.39; A 3.49; T 3.52; H 3.58; P 3.5; F 3.24; M 3.2; E 4.36; N 3.43; V 3.6
S24: H 3.97; D 4.54; C 4.07; A 4.38; R 3.94; K 4.17; W 4.59; T 4.58; Y 4.46

Variants of: B2
Test: as above
Conditions: c terminus: a fixed tail appended

Protein stability index of substitutions, site by site:
S24: H 1.74; D 1.9; E 1.77; G 2.34; V 1.52; K 2.15; I 1.97; W 2.63; A 1.96; T 1.51; C 2.32; N 1.88; F 1.69; R 2.18; L 1.41; Q 1.78; M 1.54; Y 1.94; P 1.34
R23: F 1.88; P 1.8; K 2.55; S 1.83; G 1.74; Q 2.09; E 2.77; Y 1.63; A 2.89; C 1.43; H 1.74; M 1.88; T 2.04; D 2.39; V 1.91; L 1.81; I 1.88; N 1.83; W 1.11
L22: Y 2.73; S 2.04; W 1.84; T 2.12; V 1.62
